{"source": "patent US20260008815A1", "about": "“CYCLIC PEPTIDE OR SALT THEREOF, AND USES THEREOF” (FUJIFILM Corporation, priority 2023, published 2026)", "note": "Bridge positions count the residues as written; N and C are the ends. Ends that are not written are not given here. COCH2 = acetyl group that carries the bridge", "data": [{"target": "T1, Recombinant Human FGFR2 alpha (IIIc) Fc Chimera Protein, CF (R&D systems, 712-FR-050) (human, UniProt P21802 22-377)", "T1 construct": "bought; not shown: Fc part of the chimera", "T1 sequence (P21802 22-377, change not shown)": "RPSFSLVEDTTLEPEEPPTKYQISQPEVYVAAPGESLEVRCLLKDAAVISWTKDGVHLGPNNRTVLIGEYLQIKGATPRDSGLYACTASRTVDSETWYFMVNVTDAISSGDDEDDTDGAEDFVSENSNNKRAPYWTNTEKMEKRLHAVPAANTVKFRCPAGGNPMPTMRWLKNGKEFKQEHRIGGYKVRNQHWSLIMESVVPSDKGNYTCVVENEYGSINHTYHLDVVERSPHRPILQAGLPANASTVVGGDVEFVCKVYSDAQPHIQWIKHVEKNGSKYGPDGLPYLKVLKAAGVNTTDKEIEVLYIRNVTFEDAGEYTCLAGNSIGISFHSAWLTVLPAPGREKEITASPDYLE", "assay": "ELISA on plate-bound FGFR2-Fc", "procedure,_shortened": "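Peptide binding scored by category from dose-response of background-corrected luminescence (FGFR-coated minus uncoated wells). Detection via anti-Myc antibody (2 h, room temperature) after 3 h peptide incubation on wells coated with 5 ng FGFR2 alpha (IIIc)-Fc.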", "units": {"ELISA luminescence signal at 10 nmol/L peptide, relative to SEQ ID NO: 47 (=1)": "ratio"}, "values": [{"binder": "YCEENYLDPEQYQYFSYFK(COCH2)Y (thioether 2-19 (inferred))", "note": "[cyclic peptide SEQ ID NO: 285]", "ELISA luminescence signal at 10 nmol/L peptide, relative to SEQ ID NO: 47 (=1)": "≥ 0.7"}, {"binder": "YCEENYLDPEQYQYFIFFK(COCH2)Y (thioether 2-19 (inferred))", "note": "[cyclic peptide SEQ ID NO: 296]", "ELISA luminescence signal at 10 nmol/L peptide, relative to SEQ ID NO: 47 (=1)": "≥ 0.7"}, {"binder": "YCEENYLDPEQYQYFEYFK(COCH2)Y (thioether 2-19 (inferred))", "note": "[cyclic peptide SEQ ID NO: 288]", "ELISA luminescence signal at 10 nmol/L peptide, relative to SEQ ID NO: 47 (=1)": "≥ 0.7"}, {"binder": "YCEENALDPEQYQYFIYFK(COCH2)Y (thioether 2-19 (inferred))", "note": "[cyclic peptide SEQ ID NO: 326]", "ELISA luminescence signal at 10 nmol/L peptide, relative to SEQ ID NO: 47 (=1)": "0.1 to 0.5"}, {"binder": "YCEENYLDPEQYQYFRYFK(COCH2)Y (thioether 2-19 (inferred))", "note": "[cyclic peptide SEQ ID NO: 289]", "ELISA luminescence signal at 10 nmol/L peptide, relative to SEQ ID NO: 47 (=1)": "≥ 0.7"}, {"binder": "YCEENYLDPEQYQYFIYFK(COCH2)I (thioether 2-19 (inferred))", "note": "[cyclic peptide SEQ ID NO: 310]", "ELISA luminescence signal at 10 nmol/L peptide, relative to SEQ ID NO: 47 (=1)": "≥ 0.7"}, {"binder": "YCEENYLDPEQYQYFINFK(COCH2)Y (thioether 2-19 (inferred))", "note": "[cyclic peptide SEQ ID NO: 298]", "ELISA luminescence signal at 10 nmol/L peptide, relative to SEQ ID NO: 47 (=1)": "≥ 0.7"}, {"binder": "YCEENYLDPEQYQYFIEFK(COCH2)Y (thioether 2-19 (inferred))", "note": "[cyclic peptide SEQ ID NO: 303]", "ELISA luminescence signal at 10 nmol/L peptide, relative to SEQ ID NO: 47 (=1)": "≥ 0.7"}, {"binder": "YCEENYLDPEQYQYFIDFK(COCH2)Y (thioether 2-19 (inferred))", "note": "[cyclic peptide SEQ ID NO: 302]", "ELISA luminescence signal at 10 nmol/L peptide, relative to SEQ ID NO: 47 (=1)": "≥ 0.7"}, {"binder": "YCEENYLDPEQYQYFIYFK(COCH2)G (thioether 2-19 (inferred))", "note": "[cyclic peptide SEQ ID NO: 308]", "ELISA luminescence signal at 10 nmol/L peptide, relative to SEQ ID NO: 47 (=1)": "≥ 0.7"}, {"binder": "YCEENYLDPEQYQYFIRFK(COCH2)Y (thioether 2-19 (inferred))", "note": "[cyclic peptide SEQ ID NO: 304]", "ELISA luminescence signal at 10 nmol/L peptide, relative to SEQ ID NO: 47 (=1)": "≥ 0.7"}, {"binder": "YCEENYLDPEQYQYFIIFK(COCH2)Y (thioether 2-19 (inferred))", "note": "[cyclic peptide SEQ ID NO: 294]", "ELISA luminescence signal at 10 nmol/L peptide, relative to SEQ ID NO: 47 (=1)": "0.5 to 0.7"}, {"binder": "YCEENYLDPEQYQYFIHFK(COCH2)Y (thioether 2-19 (inferred))", "note": "[cyclic peptide SEQ ID NO: 305]", "ELISA luminescence signal at 10 nmol/L peptide, relative to SEQ ID NO: 47 (=1)": "≥ 0.7"}, {"binder": "YCEENYLDPEQYQYFIYWK(COCH2)Y (thioether 2-19 (inferred))", "note": "[cyclic peptide SEQ ID NO: 307]", "ELISA luminescence signal at 10 nmol/L peptide, relative to SEQ ID NO: 47 (=1)": "≥ 0.7"}, {"binder": "YCEENYLDPEQYQYFIYYK(COCH2)Y (thioether 2-19 (inferred))", "note": "[cyclic peptide SEQ ID NO: 306]", "ELISA luminescence signal at 10 nmol/L peptide, relative to SEQ ID NO: 47 (=1)": "≥ 0.7"}, {"binder": "YCEENYLDPEQYQYFHYFK(COCH2)Y (thioether 2-19 (inferred))", "note": "[cyclic peptide SEQ ID NO: 290]", "ELISA luminescence signal at 10 nmol/L peptide, relative to SEQ ID NO: 47 (=1)": "≥ 0.7"}, {"binder": "YCEENYLDPEQYQYFIYFK(COCH2)V (thioether 2-19 (inferred))", "note": "[cyclic peptide SEQ ID NO: 311]", "ELISA luminescence signal at 10 nmol/L peptide, relative to SEQ ID NO: 47 (=1)": "≥ 0.7"}, {"binder": "YCEENYLDPEQYQYFIYFK(COCH2)T (thioether 2-19 (inferred))", "note": "[cyclic peptide SEQ ID NO: 317]", "ELISA luminescence signal at 10 nmol/L peptide, relative to SEQ ID NO: 47 (=1)": "≥ 0.7"}, {"binder": "YCEANYLDPEQYQYFIYFK(COCH2)Y (thioether 2-19 (inferred))", "note": "[cyclic peptide SEQ ID NO: 324]", "ELISA luminescence signal at 10 nmol/L peptide, relative to SEQ ID NO: 47 (=1)": "≥ 0.7"}, {"binder": "YCEENYLDPEQYQYFIYFK(COCH2)H (thioether 2-19 (inferred))", "note": "[cyclic peptide SEQ ID NO: 321]", "ELISA luminescence signal at 10 nmol/L peptide, relative to SEQ ID NO: 47 (=1)": "≥ 0.7"}, {"binder": "YCEENYLDPEQYQYFIYFK(COCH2)N (thioether 2-19 (inferred))", "note": "[cyclic peptide SEQ ID NO: 314]", "ELISA luminescence signal at 10 nmol/L peptide, relative to SEQ ID NO: 47 (=1)": "≥ 0.7"}, {"binder": "YCEENYLDPEQYQYFIYFK(COCH2)D (thioether 2-19 (inferred))", "note": "[cyclic peptide SEQ ID NO: 318]", "ELISA luminescence signal at 10 nmol/L peptide, relative to SEQ ID NO: 47 (=1)": "≥ 0.7"}, {"binder": "YCEENYLDPEQYQYFIYFK(COCH2)W (thioether 2-19 (inferred))", "note": "[cyclic peptide SEQ ID NO: 313]", "ELISA luminescence signal at 10 nmol/L peptide, relative to SEQ ID NO: 47 (=1)": "≥ 0.7"}, {"binder": "YCEENYLDPEQYQYFDYFK(COCH2)Y (thioether 2-19 (inferred))", "note": "[cyclic peptide SEQ ID NO: 287]", "ELISA luminescence signal at 10 nmol/L peptide, relative to SEQ ID NO: 47 (=1)": "≥ 0.7"}, {"binder": "ACEENYLDPEQYQYFIYFK(COCH2)Y (thioether 2-19 (inferred))", "note": "[cyclic peptide SEQ ID NO: 322]", "ELISA luminescence signal at 10 nmol/L peptide, relative to SEQ ID NO: 47 (=1)": "≥ 0.7"}, {"binder": "YCAENYLDPEQYQYFIYFK(COCH2)Y (thioether 2-19 (inferred))", "note": "[cyclic peptide SEQ ID NO: 323]", "ELISA luminescence signal at 10 nmol/L peptide, relative to SEQ ID NO: 47 (=1)": "≥ 0.7"}, {"binder": "YCEENYLDPEQYQYFIYFK(COCH2)S (thioether 2-19 (inferred))", "note": "[cyclic peptide SEQ ID NO: 316]", "ELISA luminescence signal at 10 nmol/L peptide, relative to SEQ ID NO: 47 (=1)": "≥ 0.7"}, {"binder": "YCEENYLDPEQYQYFIYFK(COCH2)Q (thioether 2-19 (inferred))", "note": "[cyclic peptide SEQ ID NO: 315]", "ELISA luminescence signal at 10 nmol/L peptide, relative to SEQ ID NO: 47 (=1)": "≥ 0.7"}, {"binder": "YCEENYLDPEQYQYFIGFK(COCH2)Y (thioether 2-19 (inferred))", "note": "[cyclic peptide SEQ ID NO: 291]", "ELISA luminescence signal at 10 nmol/L peptide, relative to SEQ ID NO: 47 (=1)": "0.5 to 0.7"}, {"binder": "YCEENYLDPEQYQYFIVFK(COCH2)Y (thioether 2-19 (inferred))", "note": "[cyclic peptide SEQ ID NO: 295]", "ELISA luminescence signal at 10 nmol/L peptide, relative to SEQ ID NO: 47 (=1)": "≥ 0.7"}, {"binder": "YCEEAYLDPEQYQYFIYFK(COCH2)Y (thioether 2-19 (inferred))", "note": "[cyclic peptide SEQ ID NO: 325]", "ELISA luminescence signal at 10 nmol/L peptide, relative to SEQ ID NO: 47 (=1)": "0.1 to 0.5"}, {"binder": "YCEENYLDPEQYQYFITFK(COCH2)Y (thioether 2-19 (inferred))", "note": "[cyclic peptide SEQ ID NO: 301]", "ELISA luminescence signal at 10 nmol/L peptide, relative to SEQ ID NO: 47 (=1)": "≥ 0.7"}, {"binder": "YCEENYLDPEQYQYFIYFK(COCH2)L (thioether 2-19 (inferred))", "note": "[cyclic peptide SEQ ID NO: 309]", "ELISA luminescence signal at 10 nmol/L peptide, relative to SEQ ID NO: 47 (=1)": "≥ 0.7"}, {"binder": "YCEENYLDPEQYQYFIWFK(COCH2)Y (thioether 2-19 (inferred))", "note": "[cyclic peptide SEQ ID NO: 297]", "ELISA luminescence signal at 10 nmol/L peptide, relative to SEQ ID NO: 47 (=1)": "≥ 0.7"}, {"binder": "YCEENYLDPEQYQYFIYFK(COCH2)F (thioether 2-19 (inferred))", "note": "[cyclic peptide SEQ ID NO: 312]", "ELISA luminescence signal at 10 nmol/L peptide, relative to SEQ ID NO: 47 (=1)": "≥ 0.7"}, {"binder": "YCEENYLDPEQYQYFIYFK(COCH2)E (thioether 2-19 (inferred))", "note": "[cyclic peptide SEQ ID NO: 319]", "ELISA luminescence signal at 10 nmol/L peptide, relative to SEQ ID NO: 47 (=1)": "≥ 0.7"}, {"binder": "YCEENYLDPEQYQYFISFK(COCH2)Y (thioether 2-19 (inferred))", "note": "[cyclic peptide SEQ ID NO: 300]", "ELISA luminescence signal at 10 nmol/L peptide, relative to SEQ ID NO: 47 (=1)": "≥ 0.7"}, {"binder": "YCEENYLDPEQYQYFIPFK(COCH2)Y (thioether 2-19 (inferred))", "note": "[cyclic peptide SEQ ID NO: 292]", "ELISA luminescence signal at 10 nmol/L peptide, relative to SEQ ID NO: 47 (=1)": "0.1 to 0.5"}, {"binder": "YCEENYLDPEQYQYFIQFK(COCH2)Y (thioether 2-19 (inferred))", "note": "[cyclic peptide SEQ ID NO: 299]", "ELISA luminescence signal at 10 nmol/L peptide, relative to SEQ ID NO: 47 (=1)": "≥ 0.7"}, {"binder": "YCEENYLDPEQYQYFIYFK(COCH2)R (thioether 2-19 (inferred))", "note": "[cyclic peptide SEQ ID NO: 320]", "ELISA luminescence signal at 10 nmol/L peptide, relative to SEQ ID NO: 47 (=1)": "≥ 0.7"}, {"binder": "YCEENYLDPEQYQYFTYFK(COCH2)Y (thioether 2-19 (inferred))", "note": "[cyclic peptide SEQ ID NO: 286]", "ELISA luminescence signal at 10 nmol/L peptide, relative to SEQ ID NO: 47 (=1)": "≥ 0.7"}, {"binder": "YCEENYLDPEQYQYFILFK(COCH2)Y (thioether 2-19 (inferred))", "note": "[cyclic peptide SEQ ID NO: 293]", "ELISA luminescence signal at 10 nmol/L peptide, relative to SEQ ID NO: 47 (=1)": "≥ 0.7"}]}]}
